Measured values reported in US20190375846A1.

Target: human GITR at the cell surface (human) (UniProt Q9Y5U5)
Assay: cell-based or functional assay

Chain of human GITR at the cell surface (human) (Q9Y5U5 26-241): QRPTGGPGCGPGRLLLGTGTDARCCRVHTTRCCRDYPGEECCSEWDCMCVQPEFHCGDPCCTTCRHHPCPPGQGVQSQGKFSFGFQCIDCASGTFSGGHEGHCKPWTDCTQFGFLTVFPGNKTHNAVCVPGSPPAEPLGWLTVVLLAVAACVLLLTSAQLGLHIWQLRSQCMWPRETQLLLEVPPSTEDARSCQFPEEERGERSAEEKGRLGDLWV

## HA-tagged human GITRL protein cross-linked with anti-HA tag antibody (from UniProt Q9UNG2 52-177) (ligand)
  concentration of maximum signal, GITR agonism reporter assay: 1000 to 2000 ng/mL
